According to IntAct's records for PubMed 15949802:

B1: Peroxisomal targeting signal receptor (Saccharomyces cerevisiae), P35056 (parent)
chain: MDVGSCSVGNNPLAQLHKHTQQNKSLQFNQKNNGRLNESPLQGTNKPGISEAFISNVNAISQENMANMQRFINGEPLIDDKRRMEIGPSSGRLPPFSNVHSLQTSANPTQIKGVNDISHWSQEFQGSNSIQNRNADTGNSEKAWQRGSTTASSRFQYPNTMMNNYAYASMNSLSGSRLQSPAFMNQQQSGRSKEGVNEQEQQPWTDQFEKLEKEVSENLDINDEIEKEENVSEVEQNKPETVEKEEGVYGDQYQSDFQEVWDSIHKDAEEVLPSELVNDDLNLGEDYLKYLGGRVNGNIEYAFQSNNEYFNNPNAYKIGCLLMENGAKLSEAALAFEAAVKEKPDHVDAWLRLGLVQTQNEKELNGISALEECLKLDPKNLEAMKTLAISYINEGYDMSAFTMLDKWAETKYPEIWSRIKQQDDKFQKEKGFTHIDMNAHITKQFLQLANNLSTIDPEIQLCLGLLFYTKDDFDKTIDCFESALRVNPNDELMWNRLGASLANSNRSEEAIQAYHRALQLKPSFVRARYNLAVSSMNIGCFKEAAGYLLSVLSMHEVNTNNKKGDVGSLLNTYNDTVIETLKRVFIAMNRDDLLQEVKPGMDLKRFKGEFSF
partner: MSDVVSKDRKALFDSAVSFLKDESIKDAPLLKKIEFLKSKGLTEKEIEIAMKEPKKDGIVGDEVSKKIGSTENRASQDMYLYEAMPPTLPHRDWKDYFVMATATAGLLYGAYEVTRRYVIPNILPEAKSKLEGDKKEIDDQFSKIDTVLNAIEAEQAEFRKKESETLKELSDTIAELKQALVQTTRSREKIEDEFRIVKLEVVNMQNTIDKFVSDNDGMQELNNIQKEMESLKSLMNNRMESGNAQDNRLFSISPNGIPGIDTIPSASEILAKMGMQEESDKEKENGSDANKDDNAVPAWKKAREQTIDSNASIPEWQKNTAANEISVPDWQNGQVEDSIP

Variants of: B1
Conditions: with pex14_yeast PEX14, P53112

| effect of a mutation on the interaction | Variant |
| --- | --- |
| decreasing interaction | W204A |

Variants of: B1
Conditions: with pex14_yeast PEX14, P53112
Remark: another data set of the same source

| effect of a mutation on the interaction | Variant |
| --- | --- |
| disrupting interaction | W120A;W204A |
